From patent US20240002818

Test system: T1, Myotis lucifugus helper (Myotis lucifugus)
T1 sequence: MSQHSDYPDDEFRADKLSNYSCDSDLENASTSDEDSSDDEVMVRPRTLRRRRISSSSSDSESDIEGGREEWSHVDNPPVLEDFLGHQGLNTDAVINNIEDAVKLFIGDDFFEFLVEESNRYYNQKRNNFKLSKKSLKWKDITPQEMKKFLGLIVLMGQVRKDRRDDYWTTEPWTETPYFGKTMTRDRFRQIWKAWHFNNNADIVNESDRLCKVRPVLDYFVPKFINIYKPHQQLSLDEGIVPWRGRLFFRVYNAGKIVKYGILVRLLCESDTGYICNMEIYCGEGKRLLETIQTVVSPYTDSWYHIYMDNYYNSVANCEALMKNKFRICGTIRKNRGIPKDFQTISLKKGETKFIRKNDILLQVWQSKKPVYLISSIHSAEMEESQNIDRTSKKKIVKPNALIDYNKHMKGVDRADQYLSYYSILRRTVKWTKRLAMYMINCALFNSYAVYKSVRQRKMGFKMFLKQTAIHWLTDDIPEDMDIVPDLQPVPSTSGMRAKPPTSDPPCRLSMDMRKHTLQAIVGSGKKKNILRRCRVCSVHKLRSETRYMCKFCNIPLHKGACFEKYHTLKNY
Experiment: cell_activity
Conditions: HEK293, GFP+ cells day 21 relative to day 2; indirect evidence of end recognition

## Myotis lucifugus donor ends (left/right)
  activity (% integration efficiency): 3.5
